Measured values reported in PMC11488100, “PET imaging of CXCR4 expression using [^18F]AlF-NOTA-QHY-04 for hematologic malignancy and solid tumors” (Theranostics, 2024).
Bridge positions count the residues as written; N and C are the ends. Square brackets hold non-standard residues; d marks the D form. Peptide text beside a SMILES is read from it. * marks the point of attachment. NOTA = O=C(O)CN1CCN(CC(=O)O)CCN(CC(=O)*)CC1; 2Nal = N[C@@H](Cc1ccc2ccccc2c1)C(=O)O; Pen = CC(C)(S)[C@H](N)C(=O)O; 4Amb = NCc1ccc(C(=O)O)cc1; Ahx = NCCCCCC(=O)O

Assays:
[1] = target: T1, CXCR4 expression (Homo sapiens, UniProt P61073); settings: in vivo
T1 construct: from tissue; host or cells: tumour lesions in cancer patients (DLBCL, SCLC, NSCLC, TNBC, pancreatic carcinoma, glioma, HCC, CRC), in vivo
T1 sequence (P61073 whole entry): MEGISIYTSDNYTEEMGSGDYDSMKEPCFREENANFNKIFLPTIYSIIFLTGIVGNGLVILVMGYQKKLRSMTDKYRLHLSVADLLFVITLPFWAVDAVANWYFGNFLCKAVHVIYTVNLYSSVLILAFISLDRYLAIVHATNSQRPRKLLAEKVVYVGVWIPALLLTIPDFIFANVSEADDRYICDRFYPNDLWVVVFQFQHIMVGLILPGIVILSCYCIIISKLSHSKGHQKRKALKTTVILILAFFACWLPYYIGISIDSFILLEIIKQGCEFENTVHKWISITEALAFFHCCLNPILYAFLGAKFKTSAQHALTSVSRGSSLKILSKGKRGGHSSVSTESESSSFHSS
Source text: Potential eligible patients with newly diagnosed tumor were recruited from Shandong Cancer Hospital and institute from November 2022 to December 2023. A total of 55 patients including 8 tumor types were represented in this study (diffuse large B-cell lymphoma (DLBCL), n = 6; SCLC, n = 30; non-small cell lung cancer (NSCLC), n = 4; triple-negative breast cancer (TNBC), n = 3; pancreatic carcinoma, n = 3; glioma, n = 7; hepatocellular carcinoma (HCC), n = 1; and colorectal carcinoma (CRC), n = 1). The [^18F]AlF-NOTA-QHY-04 imaging study in patients was approved by the Institutional Review Board of Shandong Cancer Hospital and Institute (no. SDZLEC2023-256-02), and the patients provided their informed consent before inclusion in this study. In this prospective observational study, [^18F]AlF-NOTA-QHY-04 PET/CT scans should not affect the normal process of routine examinations and treatment as usual. Patients were enrolled according to the following criteria: (1) newly diagnosed cancer patients with visible tumors on conventional imaging; (2) histopathologically confirmed diagnosis; (3) age ≥ 18 years; (4) Eastern Cooperative Oncology Group (ECOG) performance status score of 0-2; (5) no prior cancer-directed therapy; (6) ability to undergo [^18F]AlF-NOTA-QHY-04 PET/CT scanning before treatment initiation. Specifically, regarding histological confirmation, we followed the standard clinical practice guidelines for each type of cancer [21]-[26], and provided detailed descriptions of our approach for obtaining histological evidence in the supplemental materials. […]
NaOH. Finally, the cell lysates were collected and measured by an automatic gamma counter (2470 Wizard2, PerkinElmer). […]
The tumor-bearing mice were injected with 3.70 ± 0.74 MBq of [18F]AlF-NOTA-QHY-04 in about 150 μL saline via the tail vein. […] The PET/CT images were analyzed using OsiriX MD software (Pixmeo SARL, Geneva, Switzerland), and the regions of interest (ROIs) were drawn along the boundary covering the whole tumor volume for quantification of the radioactivity (expressed as %ID/mL). […]

[2] = in vivo; cited from earlier work
Source text: (Figure 3A and 3B). In contrast, the blood, heart, liver, ...

**Q.** With `C[C@H](NC(=O)[C@H](CCCNC(=N)N)NC(=O)CCCCCNC(=O)c1ccc(CNC(=O)CN2CCN(CC(=O)O)CCN(CC(=O)O)CC2)cc1)C(=O)N[C@@H]1CSSC(C)(C)[C@@H](C(=O)O)NC(=O)[C@H](Cc2c[nH]cn2)NC(=O)[C@H](Cc2ccc3ccccc3c2)NC(=O)[C@H](CCCNC(=N)N)NC1=O` [[^18F]AlF-NOTA-QHY-04] ({NOTA-4Amb-Ahx}-RA[dC]R[2Nal]H[Pen]-OH; disulfide 3-7) as the molecule, how does the SUVmean [1] read?
**A.** Its SUVmean is 7.52 ± 3.01.

**Q.** And the “average SUVmax” value [1]?
**A.** The value was 6.29 ± 2.85.

**Q.** And the “average T/N (tumor-to-normal brain ratio)” value [1]?
**A.** Its value is 62.55 ± 43.24.

**Q.** And the acute radiotoxicity [2]?
**A.** The acute radiotoxicity was “no acute radiotoxicity”.
